The record followed here is paper PMC2225448.

The term Kd denotes a measure of binding affinity in units of concentration. Read a low Kd as a tighter complex. One may read the stoichiometry N as a count of units in the complex or per binding partner.

Square brackets hold non-standard residues; d marks the D form. Ends that are not written are not given here. pY = N[C@@H](Cc1ccc(OP(=O)(O)O)cc1)C(=O)O

The experiment deals with SOCS4-ElonginC-ElonginB ternary complex (human), Q8WXH5. Briefly: ITC; 0.3-0.4 mM peptide injected into 15 μM protein; 50 mM HEPES (pH 7.5), 150 mM NaCl, 1 mM DTT, 20°C; blank titrations subtracted; single binding site model. The conditions noted are these: remark: other sources report otherwise.
Sequence of SOCS4-ElonginC-ElonginB ternary complex (human), Q8WXH5 (Q8WXH5 274-437, chain 1 of 3): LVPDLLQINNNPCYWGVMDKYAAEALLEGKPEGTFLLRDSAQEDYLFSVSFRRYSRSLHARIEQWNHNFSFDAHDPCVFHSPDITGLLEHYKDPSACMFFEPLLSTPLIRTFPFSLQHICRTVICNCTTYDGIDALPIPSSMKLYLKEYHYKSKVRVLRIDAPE
Sequence of SOCS4-ElonginC-ElonginB ternary complex (human), Q8WXH5 (Q15369 17-112, chain 2 of 3, further chain): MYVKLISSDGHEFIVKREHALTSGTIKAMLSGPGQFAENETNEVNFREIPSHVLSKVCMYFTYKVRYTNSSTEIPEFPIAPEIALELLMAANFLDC
Sequence of SOCS4-ElonginC-ElonginB ternary complex (human), Q8WXH5 (Q15370 whole entry, chain 3 of 3, further chain): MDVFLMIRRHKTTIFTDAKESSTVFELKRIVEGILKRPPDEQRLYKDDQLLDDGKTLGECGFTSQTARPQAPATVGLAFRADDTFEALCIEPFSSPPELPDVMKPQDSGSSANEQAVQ

For ASFE[pY]TILDPS [EpoR pY402 peptide ASFE(pY)TILDPS], the Ka was 130000 M⁻¹, the Kd was 7.7 µM, the dH is -14.5 kcal/mol and the stoichiometry N is 0.71.
